Where a chain is given by its changes, count along the chain named. Names and notes keep the numbering of the source.
Biological target: T1, Human IL-18Rα ectodomain (amino acids 19-329), biotinylated (human), Q13478
T1 chain: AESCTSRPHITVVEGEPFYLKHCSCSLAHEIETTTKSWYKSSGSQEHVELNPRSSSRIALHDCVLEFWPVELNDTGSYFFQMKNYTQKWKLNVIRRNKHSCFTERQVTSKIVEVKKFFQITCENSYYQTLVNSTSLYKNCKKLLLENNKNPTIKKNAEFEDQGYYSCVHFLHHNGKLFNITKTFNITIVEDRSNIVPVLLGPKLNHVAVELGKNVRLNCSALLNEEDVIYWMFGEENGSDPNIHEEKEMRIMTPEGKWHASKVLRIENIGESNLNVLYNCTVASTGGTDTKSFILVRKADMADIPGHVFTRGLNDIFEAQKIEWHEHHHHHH
Assay: on-yeast binding isotherm (flow cytometry), drawn summary table, IL18Rα (KD)
Details: remark: other sources report otherwise

B1: SEQ ID NO: 125 (human D2D IL-18 consensus hD2D-CS3), Q14116 37-193 (ligand)
chain: YFGKLESKLSVIRNLNGQVLFIDQGNRPLFADMESSDCRDNAPRTIFIISFYKDSQPRGLAVTISVKCEKISTLSCENKIISFKEMNPPDNIKDTKSDIIFFLRSVPGHDNKMQFESSSYEGYFLACEKERDLFKLILKKEDELGDRSIMFTVQNED
modifications: here or on the partner: biotin on the AviTag (BirA ligase)
- Kd: 9.7 µM

B2: SEQ ID NO: 124 (human D2D IL-18 consensus hD2D-CS2), Q14116 37-193 (ligand)
chain: B1 chain with E34T, L60M
modifications: here or on the partner: biotin on the AviTag (BirA ligase)
- Kd: 21 µM

B3: SEQ ID NO: 123 (human D2D IL-18 consensus hD2D-CS1), Q14116 37-193 (ligand)
chain: B1 chain with E34T, S35D, F51M, L60M
modifications: here or on the partner: biotin on the AviTag (BirA ligase)
- Kd: 0.43 µM

From patent US20230277625A1
